From patent US20220127328A1 (FATE THERAPEUTICS, published 2022)
Each block holds one binder with its values, some of them ahead of it.

Target: T1, NKG2C (transgenic, expressed on the surface of iPSC-derived NK cells) (Homo sapiens (Human), UniProt P26717 1-231)
T1 construct: After 2A cleavage a C-terminal 2A remnant may stay on the chain; also called transgenic NKG2C
Assay: FACS of surface NKG2C on iNK cells from the NKG2C only iPSC line; pairing inferred from surface expression
Source text: After the engineering step, iPSCs were sorted for the desired phenotype. […] Engineered iPSCs were differentiated into CD34+ hematopoietic progenitor cells and subsequently differentiated into CD56+ NK cells (iNK cells) using a stepwise differentiation and expansion strategy. Surface NKG2C expression was low on unmodified iNK cells (about 5-10%) as determined by FACS.

T1 sequence (P26717 whole entry): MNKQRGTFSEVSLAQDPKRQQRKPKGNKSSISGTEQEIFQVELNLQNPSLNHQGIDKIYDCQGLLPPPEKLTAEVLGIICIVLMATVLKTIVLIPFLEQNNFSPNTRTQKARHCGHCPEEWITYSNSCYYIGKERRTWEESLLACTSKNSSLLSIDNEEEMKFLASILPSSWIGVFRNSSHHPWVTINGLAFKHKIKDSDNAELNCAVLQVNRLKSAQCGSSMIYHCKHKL

binding result: binds
B1: endogenous CD94 (receptor, human, UniProt Q13241 1-179, looked up)
chain: MAVFKTTLWRLISGTLGIICLSLMSTLGILLKNSFTKLSIEPAFTPGPNIELQKDSDCCSCQEKWVGYRCNCYFISSEQKTWNESRHLCASQKSSLLQLQNTDELDFMSSSQQFYWIGLSYSEEHTAWLWENGSALSQYLFPSFETFNTKNCIAYNPNGNALDESCEDKNRYICKQQLI
notes: whole, on cells

binding result: binds
B2: endogenous DAP12 (other, human, UniProt O43914 22-113, looked up)
chain: LRPVQAQAQSDCSCSTVSPGVLAGIVMGDLVLTVLIALAVYFLGRLVPRGRGAAEAATRKQRITETESPYQELQGQRSDVYSDLNTQRPYYK
notes: whole, on cells
